# Results from US20090149389A1 (PURDUE RESEARCH FOUNDATION, published 2009).
# T1: PhKγ2 (h) (human (h), UniProt P15735 1-406)
# T1 sequence (looked up): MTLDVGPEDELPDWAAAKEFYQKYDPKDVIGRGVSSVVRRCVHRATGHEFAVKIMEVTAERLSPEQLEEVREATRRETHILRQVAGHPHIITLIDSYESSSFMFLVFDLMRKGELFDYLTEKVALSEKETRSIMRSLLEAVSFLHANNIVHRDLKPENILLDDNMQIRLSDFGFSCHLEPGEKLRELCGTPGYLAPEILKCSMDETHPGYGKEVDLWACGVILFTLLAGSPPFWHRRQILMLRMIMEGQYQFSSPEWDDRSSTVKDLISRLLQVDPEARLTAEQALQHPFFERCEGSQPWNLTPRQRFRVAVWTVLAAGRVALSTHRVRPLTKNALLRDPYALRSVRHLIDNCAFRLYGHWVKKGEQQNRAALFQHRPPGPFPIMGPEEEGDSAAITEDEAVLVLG
# T2: IRAK4 (h) (human (h), UniProt Q9NWZ3 1-460, limits assumed)
# T2 sequence (looked up): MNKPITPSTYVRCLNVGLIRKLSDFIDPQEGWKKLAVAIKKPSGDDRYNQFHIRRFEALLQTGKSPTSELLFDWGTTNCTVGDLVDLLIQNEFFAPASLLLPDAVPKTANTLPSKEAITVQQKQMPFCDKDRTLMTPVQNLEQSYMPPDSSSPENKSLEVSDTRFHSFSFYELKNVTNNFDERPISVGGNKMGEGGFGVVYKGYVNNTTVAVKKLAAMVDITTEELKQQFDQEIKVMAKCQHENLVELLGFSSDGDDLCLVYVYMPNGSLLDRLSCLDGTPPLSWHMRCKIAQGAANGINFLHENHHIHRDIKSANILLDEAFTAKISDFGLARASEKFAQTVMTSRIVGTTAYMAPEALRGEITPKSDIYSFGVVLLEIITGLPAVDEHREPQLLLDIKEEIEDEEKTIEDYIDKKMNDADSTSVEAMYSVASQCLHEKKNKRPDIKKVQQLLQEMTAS
# T3: Aurora-A (h) (human (h), UniProt O14965 1-403)
# T3 sequence (looked up): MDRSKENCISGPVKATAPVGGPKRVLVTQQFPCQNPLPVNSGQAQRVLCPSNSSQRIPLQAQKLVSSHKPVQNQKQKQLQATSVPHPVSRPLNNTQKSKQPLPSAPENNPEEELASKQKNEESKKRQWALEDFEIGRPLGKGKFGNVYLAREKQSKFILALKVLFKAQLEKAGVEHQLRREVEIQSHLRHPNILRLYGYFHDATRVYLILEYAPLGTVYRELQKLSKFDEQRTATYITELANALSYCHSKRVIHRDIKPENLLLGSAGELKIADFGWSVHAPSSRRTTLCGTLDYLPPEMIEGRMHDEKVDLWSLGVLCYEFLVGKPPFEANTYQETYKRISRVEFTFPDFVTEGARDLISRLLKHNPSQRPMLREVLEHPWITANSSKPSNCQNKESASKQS
# T4: CHK1 (h) (human (h), UniProt O14757 1-476)
# T4 sequence (looked up): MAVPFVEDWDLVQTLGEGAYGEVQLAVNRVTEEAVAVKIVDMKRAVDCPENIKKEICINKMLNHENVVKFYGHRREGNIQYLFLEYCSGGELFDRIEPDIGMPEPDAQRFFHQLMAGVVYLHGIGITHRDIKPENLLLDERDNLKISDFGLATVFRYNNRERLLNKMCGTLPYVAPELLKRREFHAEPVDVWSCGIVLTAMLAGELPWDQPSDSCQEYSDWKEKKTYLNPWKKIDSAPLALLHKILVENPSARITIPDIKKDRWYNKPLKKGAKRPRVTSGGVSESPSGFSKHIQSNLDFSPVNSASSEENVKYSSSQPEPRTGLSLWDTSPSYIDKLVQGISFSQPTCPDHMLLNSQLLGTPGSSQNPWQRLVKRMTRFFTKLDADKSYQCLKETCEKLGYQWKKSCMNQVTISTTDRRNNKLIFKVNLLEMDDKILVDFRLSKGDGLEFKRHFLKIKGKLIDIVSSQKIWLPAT
# What was measured:
# Assay in all cases: cell-based or functional assay
# MAPKI (h) = MAPKI (h) (human (h), UniProt P28482 1-360, limits assumed)
# EGFR (h) = EGFR (h) (human (h), UniProt P00533 696-1210, limits assumed)
# GSK3β (h) = GSK3β (h) (human (h), UniProt P49841 1-420)
# MLCK (h) = MLCK (h) (human (h))
# PhKγ2 (h) = target: T1, PhKγ2 (h)
# SAPK2 a (h) = SAPK2 a (h) (human (h), UniProt Q16539 1-360)
# IGF-IR (h) = IGF-IR (h) (human (h), UniProt P08069 959-1367, limits assumed)
# IRAK4 (h) = target: T2, IRAK4 (h)
# Aurora-A (h) = target: T3, Aurora-A (h)
# ROCK-1 (h) = ROCK-1 (h) (human (h), UniProt Q13464 17-535, limits assumed)
# TrkA (h) = TrkA (h) (human (h), UniProt P04629 441-796, limits assumed)
# JAK3 (h) = JAK3 (h) (human (h), UniProt P52333 781-1124, limits assumed)
# FGFR1 (h) = FGFR1 (h) (human (h), UniProt P11362 456-765, limits assumed)
# CHK1 (h) = target: T4, CHK1 (h)
# Src(1-530) (h) = Src(1-530) (h) (human (h), UniProt P12931 1-530)
# Chain of SAPK2 a (h) (Q16539 whole entry): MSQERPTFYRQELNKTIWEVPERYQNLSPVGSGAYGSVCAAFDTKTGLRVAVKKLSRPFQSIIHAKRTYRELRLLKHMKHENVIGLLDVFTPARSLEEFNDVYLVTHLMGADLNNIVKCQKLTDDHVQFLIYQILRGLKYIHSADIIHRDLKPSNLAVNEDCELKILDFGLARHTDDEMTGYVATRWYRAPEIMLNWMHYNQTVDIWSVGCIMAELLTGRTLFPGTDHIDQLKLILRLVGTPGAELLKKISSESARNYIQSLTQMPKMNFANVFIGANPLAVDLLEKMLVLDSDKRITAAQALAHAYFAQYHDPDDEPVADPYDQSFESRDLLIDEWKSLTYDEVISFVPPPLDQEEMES
# Chain of TrkA (h) (P04629 441-796 limits assumed): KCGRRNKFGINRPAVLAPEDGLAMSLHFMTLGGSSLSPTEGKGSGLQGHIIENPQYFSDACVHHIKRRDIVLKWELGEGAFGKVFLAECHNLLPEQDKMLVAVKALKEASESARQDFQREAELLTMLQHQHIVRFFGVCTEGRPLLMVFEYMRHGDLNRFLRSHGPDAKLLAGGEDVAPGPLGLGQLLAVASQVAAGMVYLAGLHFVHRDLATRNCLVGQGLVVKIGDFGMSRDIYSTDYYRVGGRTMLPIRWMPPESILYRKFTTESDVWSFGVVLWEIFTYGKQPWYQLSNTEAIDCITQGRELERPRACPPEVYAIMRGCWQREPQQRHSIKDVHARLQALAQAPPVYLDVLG
# Chain of FGFR1 (h) (P11362 456-765 limits assumed): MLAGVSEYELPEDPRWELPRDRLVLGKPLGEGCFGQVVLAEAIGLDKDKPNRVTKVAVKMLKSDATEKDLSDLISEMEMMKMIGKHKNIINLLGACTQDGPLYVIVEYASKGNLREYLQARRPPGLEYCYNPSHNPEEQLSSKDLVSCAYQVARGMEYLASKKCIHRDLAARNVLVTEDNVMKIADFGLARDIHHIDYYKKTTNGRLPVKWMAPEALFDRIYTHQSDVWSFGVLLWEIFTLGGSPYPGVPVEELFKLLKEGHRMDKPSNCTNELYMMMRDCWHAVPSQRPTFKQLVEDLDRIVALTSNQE
# Chain of ROCK-1 (h) (Q13464 17-535 limits assumed): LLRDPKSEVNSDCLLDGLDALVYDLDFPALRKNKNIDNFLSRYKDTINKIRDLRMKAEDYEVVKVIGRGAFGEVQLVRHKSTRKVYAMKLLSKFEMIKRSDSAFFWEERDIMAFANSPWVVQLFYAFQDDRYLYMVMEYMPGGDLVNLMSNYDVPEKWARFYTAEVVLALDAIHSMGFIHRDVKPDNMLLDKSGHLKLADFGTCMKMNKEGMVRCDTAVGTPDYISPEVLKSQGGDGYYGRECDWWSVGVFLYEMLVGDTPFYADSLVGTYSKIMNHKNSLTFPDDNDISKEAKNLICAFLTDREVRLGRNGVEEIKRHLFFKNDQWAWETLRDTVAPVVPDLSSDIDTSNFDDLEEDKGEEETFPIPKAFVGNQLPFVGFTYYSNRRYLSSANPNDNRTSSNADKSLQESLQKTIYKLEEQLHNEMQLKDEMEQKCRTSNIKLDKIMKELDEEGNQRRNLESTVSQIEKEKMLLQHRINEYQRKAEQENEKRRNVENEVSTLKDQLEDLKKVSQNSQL
# Chain of GSK3β (h) (P49841 whole entry): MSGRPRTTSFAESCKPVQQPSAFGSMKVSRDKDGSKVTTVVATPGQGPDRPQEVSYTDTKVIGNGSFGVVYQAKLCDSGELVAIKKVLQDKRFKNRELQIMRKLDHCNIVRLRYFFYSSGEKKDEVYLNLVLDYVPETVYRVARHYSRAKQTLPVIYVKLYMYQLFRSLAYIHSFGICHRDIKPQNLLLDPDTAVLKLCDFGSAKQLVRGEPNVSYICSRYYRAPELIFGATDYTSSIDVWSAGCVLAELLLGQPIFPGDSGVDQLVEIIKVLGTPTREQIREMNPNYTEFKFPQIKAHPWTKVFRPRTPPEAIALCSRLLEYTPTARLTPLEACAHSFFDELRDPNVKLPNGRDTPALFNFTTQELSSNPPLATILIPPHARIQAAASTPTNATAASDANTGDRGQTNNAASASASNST
# Chain of MAPKI (h) (P28482 whole entry): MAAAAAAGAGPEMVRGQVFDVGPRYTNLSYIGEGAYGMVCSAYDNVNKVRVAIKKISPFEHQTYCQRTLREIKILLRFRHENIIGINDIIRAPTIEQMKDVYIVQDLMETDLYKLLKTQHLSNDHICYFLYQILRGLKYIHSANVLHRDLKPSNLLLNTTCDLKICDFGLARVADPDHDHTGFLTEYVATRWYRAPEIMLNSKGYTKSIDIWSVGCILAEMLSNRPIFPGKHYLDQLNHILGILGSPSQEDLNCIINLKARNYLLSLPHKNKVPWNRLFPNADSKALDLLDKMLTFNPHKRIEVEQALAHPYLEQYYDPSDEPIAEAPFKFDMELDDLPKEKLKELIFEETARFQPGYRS
# Chain of IGF-IR (h) (P08069 959-1367 limits assumed): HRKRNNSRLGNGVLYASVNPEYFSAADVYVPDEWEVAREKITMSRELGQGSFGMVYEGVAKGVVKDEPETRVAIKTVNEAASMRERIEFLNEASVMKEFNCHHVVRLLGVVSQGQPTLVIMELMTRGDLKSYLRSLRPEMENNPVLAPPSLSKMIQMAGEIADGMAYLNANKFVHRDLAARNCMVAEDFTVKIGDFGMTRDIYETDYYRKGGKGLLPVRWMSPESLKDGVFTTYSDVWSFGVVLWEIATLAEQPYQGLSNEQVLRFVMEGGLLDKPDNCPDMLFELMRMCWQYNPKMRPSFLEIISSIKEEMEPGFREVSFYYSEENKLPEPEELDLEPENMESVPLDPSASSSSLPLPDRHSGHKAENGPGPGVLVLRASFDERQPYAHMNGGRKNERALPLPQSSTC
# Chain of JAK3 (h) (P52333 781-1124 limits assumed): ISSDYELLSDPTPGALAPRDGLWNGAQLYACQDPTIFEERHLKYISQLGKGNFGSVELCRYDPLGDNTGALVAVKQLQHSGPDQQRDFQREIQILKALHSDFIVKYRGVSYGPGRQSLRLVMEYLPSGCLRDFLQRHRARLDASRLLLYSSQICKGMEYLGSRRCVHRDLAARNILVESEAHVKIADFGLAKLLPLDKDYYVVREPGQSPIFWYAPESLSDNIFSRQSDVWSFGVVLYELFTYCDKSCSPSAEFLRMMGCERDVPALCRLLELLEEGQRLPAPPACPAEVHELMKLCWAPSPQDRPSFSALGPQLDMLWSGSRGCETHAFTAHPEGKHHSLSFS
binder,measurement,setting,value
WLRRIKAWLRRIKALNRQLGVAA,Profile-1 @ = 30 µm (kinase profiler assay),MAPKI (h),121
same,Profile-1 @ = 30 µm (kinase profiler assay),EGFR (h),10
same,Profile-1 @ = 30 µm (kinase profiler assay),GSK3β (h),129
same,Profile-1 @ = 30 µm (kinase profiler assay),MLCK (h),4
same,Profile-1 @ = 30 µm (kinase profiler assay),PhKγ2 (h),15
same,Profile-1 @ = 30 µm (kinase profiler assay),SAPK2 a (h),61
same,Profile-1 @ = 30 µm (kinase profiler assay),IGF-IR (h),227
same,Profile-1 @ = 30 µm (kinase profiler assay),IRAK4 (h),12
same,Profile-1 @ = 30 µm (kinase profiler assay),Aurora-A (h),46
same,Profile-1 @ = 30 µm (kinase profiler assay),ROCK-1 (h),0
same,Profile-1 @ = 30 µm (kinase profiler assay),TrkA (h),6
same,Profile-1 @ = 30 µm (kinase profiler assay),JAK3 (h),85
same,Profile-1 @ = 30 µm (kinase profiler assay),FGFR1 (h),27
same,Profile-1 @ = 30 µm (kinase profiler assay),CHK1 (h),31
same,Profile-1 @ = 30 µm (kinase profiler assay),Src(1-530) (h),6
